Data on 116 substances can be found in patent US20240207421A1, “NERVE TARGETING PEPTIDES AND METHODS OF USE” (ALUME BIOSCIENCES, INC., priority 2020, published 2024).

For one test, the target named is T1, Human Myelin Basic Protein (Homo sapiens, UniProt P02686). The experiment in a line: Phage display library screening (Example 2, Python script analysis), binding to Human Myelin Basic Protein. Also on record: Enzo 200-606-M001 from human; purchased Enzo 200-606-M001; host or cells: human brain (tissue-derived). The conditions noted are these: R3 Myelin Basic Protein; combined unique sequence count, Python/R script analysis. As to the method:
Phage display library screens were used to identify peptides that bind to target proteins (including specific laminin trimers) that are expressed in human nerves, as described in Table 3. These screens were also carried out to identify peptides that could bind selectively to nerves versus muscle. Such peptides could therefore be useful for systemic in-vivo labeling of nerves during fluorescence assisted surgery. Specifically, m 13 phage libraries expressing 7 or 12 random amino acid peptides, or a cyclic peptide CX7C, on the N-terminus of the minor coat protein pIII (New England Biolabs; NEB) were processed through multiple rounds of selection for binding to target proteins expressed in nerves, or to excised human nerves, nerve extracts, or muscle, as described further below.
For screening against the specified target proteins in Table 1, including LN211, LN411, LN421, and LN521, the phage library was processed by up to 4 binding and wash cycles. For selection, phage libraries were incubated for up to 24 hours at 4° C. in 96 well plates that had been coated with one of the target proteins. Plates were then washed with PBS and phage were eluted using 0.2M glycine pH 2.0. Phage supernatants where then neutralized with Tris pH 9.0 prior to plating on TGI bacteria and LB agar plates. Colonies were counted to determine titer followed by DNA preparation of pools of phage and NextGen sequencing. After rounds of selection, phage were pooled and amplified for iterative selection. Phage that were bound at each round were sequenced. NextGen sequencing of pools after 2, 3 and 4 rounds of selection was used to isolate candidate sequences that were analyzed further to identify those that specifically bound each unique target protein.
Python Script Analysis: For all NEB sequence datasets, a python script was used to translate, trim, and filter the peptide sequences. The script translated the nucleotide sequences, translating amber codons as glutamine in peptide sequences, and then trimmed the end sequences that come from the vector. Secondly, the script combined the unique counts of trimmed peptides with identical sequences. […] Another python script was used to group peptides from different assays according to protein target (Myelin Protein Zero, Myelin Proteolipid Protein, Myelin Basic Protein, and Nidogen-2) and also combine the unique sequence counts for each peptide. An R script was written to merge the peptide sequences from different data files and determine peptides specific for each protein target but absent from different protein binding datasets. Peptide sequences were ranked by unique sequence count.
Target sequence in this assay (P02686 134-304): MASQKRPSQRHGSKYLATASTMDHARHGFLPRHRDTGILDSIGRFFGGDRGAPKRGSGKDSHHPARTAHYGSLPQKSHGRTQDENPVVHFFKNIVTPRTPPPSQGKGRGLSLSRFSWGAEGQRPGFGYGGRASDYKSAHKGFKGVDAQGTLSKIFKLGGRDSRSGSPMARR
On to “QTSIMSG (R3 Myelin Basic Protein-binding peptide)”, for which the Count is recorded as 6.
Still for that read-out and setting: next, “AILTRPP (R3 Myelin Basic Protein-binding peptide)”: 7; “CEDSDKSVC (R3 Myelin Basic Protein-binding peptide)”: 7; “HSGPLLP (R3 Myelin Basic Protein-binding peptide)”: 6.
On the same count and under the same terms, next, “SYVTVFR (R3 Myelin Basic Protein-binding peptide)”: 6.
For “NPTDTNK (R3 Myelin Basic Protein-binding peptide)”, the Count was 8.
Same read-out and setting: next, “QPIDSTS (R3 Myelin Basic Protein-binding peptide)”: 7; “DSQEKSV (R3 Myelin Basic Protein-binding peptide)”: 6; “VPTLRIP (R3 Myelin Basic Protein-binding peptide)”: 8.
Same read-out and setting: for “NMYPRVT (R3 Myelin Basic Protein-binding peptide)” the value was 7.
The same measure, in the same setting: for “SSFYVAY (R3 Myelin Basic Protein-binding peptide)” the value was 6; for “SYTLSRS (R3 Myelin Basic Protein-binding peptide)”, 7.
In the case of “QQAHLQS (R3 Myelin Basic Protein-binding peptide)”, the Count was 8.
On the same count and under the same terms, next, “FQLSYET (R3 Myelin Basic Protein-binding peptide)”: 6; “SLRSVGA (R3 Myelin Basic Protein-binding peptide)”: 7.
Still for that read-out and setting: next, “GRHTDVV (R3 Myelin Basic Protein-binding peptide)”: 6; “QGTLFDT (R3 Myelin Basic Protein-binding peptide)”: 7; “HAHWARL (R3 Myelin Basic Protein-binding peptide)”: 6.
On the same count and under the same terms, next, “FLNQAPT (R3 Myelin Basic Protein-binding peptide)”: 7; “ESKSPRE (R3 Myelin Basic Protein-binding peptide)”: 6; “HQPLFPR (R3 Myelin Basic Protein-binding peptide)”: 6.
“LELHQNV (R3 Myelin Basic Protein-binding peptide)”: the Count stood at 6.
Take “WTYHPTT (R3 Myelin Basic Protein-binding peptide)”: the Count came out at 6.

The next test addresses T1, Human Myelin Basic Protein. Description: phage display, NGS count.
Conditions: not given
Target sequence in this assay (P02686 135-304 limits assumed): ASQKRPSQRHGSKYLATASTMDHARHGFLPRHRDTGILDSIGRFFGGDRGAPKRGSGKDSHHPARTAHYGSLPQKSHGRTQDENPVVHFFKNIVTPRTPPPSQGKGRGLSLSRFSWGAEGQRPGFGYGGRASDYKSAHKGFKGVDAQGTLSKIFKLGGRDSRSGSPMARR
HLLKTHS (peptide) yielded a Count of 7.
Still for that read-out and setting: for SVGLPTK (peptide) the value was 6.
On to WTYHPTT (peptide), for which the Count was 6.
The same measure, in the same setting: for SPPRFIP (peptide) the value was 8.
Same read-out and setting: next, IILPSAQ (peptide): 8.
On the same count and under the same terms, next, ESKSPRE (peptide): 6; ARVPNPL (peptide): 6.
GPITHAI (peptide) yielded a Count of 7.
On the same count and under the same terms, next, HPWSHPN (peptide): 6; IPIPYRT (peptide): 6; TGSVSKQ (peptide): 6.
Still for that read-out and setting: for RGHPSQL (peptide) the value was 6; for NFAQHMQ (peptide), 9; for ANLSRSV (peptide), 9.
For the substance WVPDRSL (peptide), the Count was found to be 6.
Turning to MPLLELP (peptide), the Count amounted to 7.
In the case of HSGPLLP (peptide), the Count was 6.
On the same count and under the same terms, for YPTYLSY (peptide) the value was 6; for HQPLFPR (peptide), 6.
SPKPDIP (peptide) showed a Count of 6.
Same read-out and setting: for TPQVMLK (peptide) the value was 8.
The same measure, in the same setting: next, SEPGTVR (peptide): 7; AISWKGF (peptide): 6.
On the same count and under the same terms, for TPGRATL (peptide) the value was 6; for WPDLRIL (peptide), 7; for AIPPRKL (peptide), 6.
Consider HTGLRSL (peptide), for which the Count was found to be 7.
On the same count and under the same terms, next, HPDTLPQ (peptide): 7.
The substance WSLPLLS (peptide) had a Count of 7.
Consider SLKTTNP (peptide), for which the Count is 6.
In turn, NLKLWTR (peptide) returned a Count of 7.
On the same count and under the same terms, for YTASPRW (peptide) the value was 6; for QPIDSTS (peptide), 7; for LTKSLNH (peptide), 7.
For SKPHASH (peptide), the Count stood at 6.
Turning to SVEYGQL (peptide), the Count amounted to 9.
QKALPQT (peptide) returned a Count of 6.
On the same count and under the same terms, next, AVRQTTM (peptide): 7.
NPTDTNK (peptide): the Count was 8.
Still for that read-out and setting: next, TTTQGHP (peptide): 6.
AGSLLSL (peptide): the Count came to 6.
The same measure, in the same setting: for LPPQISR (peptide) the value was 8.
The substance SWFESHN (peptide) displayed a Count of 8.
Still for that read-out and setting: next, SYVTVFR (peptide): 6.
On the same count and under the same terms, for HFTFFPI (peptide) the value was 6.
On the same count and under the same terms, for YVNRVKQ (peptide) the value was 6.
With SEGLTLL (peptide), the Count came out at 6.
DSYLLSA (peptide) returned a Count of 8.
Substance SNAERWR (peptide) yielded a Count of 9.
The same measure, in the same setting: for SLRSVGA (peptide) the value was 7; for NTSLSFK (peptide), 8.
MTNHGNA (peptide) had a Count of 7.
The same measure, in the same setting: next, MQRLGAD (peptide): 6; VRGTPNH (peptide): 6; SLWQTLR (peptide): 6.
The same measure, in the same setting: for VPTLRIP (peptide) the value was 8.
On the same count and under the same terms, next, VIRTAAM (peptide): 6.
On to LFRRVTE (peptide), for which the Count came to 7.
On the same count and under the same terms, next, HMAGVNQ (peptide): 7; DSQEKSV (peptide): 6.
Consider VSFTLEP (peptide), for which the Count came to 7.
On the same count and under the same terms, for YPYVPIY (peptide) the value was 6.
The same measure, in the same setting: next, KYRHGAE (peptide): 7.
Same read-out and setting: for QQAHLQS (peptide) the value was 8; for AAGQRSF (peptide), 7; for SRPTRVP (peptide), 9.
NMYPRVT (peptide) registered a Count of 7.
On the same count and under the same terms, next, THKHMMT (peptide): 6.
On to QTSIMSG (peptide), for which the Count amounted to 6.
The substance SKLAGFP (peptide) had a Count of 6.
Same read-out and setting: for TQMTMDS (peptide) the value was 10; for DVRIWTL (peptide), 6; for MNSPLAQ (peptide), 6.
The same measure, in the same setting: next, QYWDILG (peptide): 6; YLPPPLP (peptide): 7; KGQPLFR (peptide): 7.
The same measure, in the same setting: for FLNQAPT (peptide) the value was 7.
For the substance FDLLARK (peptide), the Count is 6.
On the same count and under the same terms, for TIRVAHT (peptide) the value was 6; for NGPNSLQ (peptide), 6.
Same read-out and setting: for TPVLWLP (peptide) the value was 6; for TPVRLNT (peptide), 6.
On the same count and under the same terms, for SISKIRT (peptide) the value was 7; for NLLQGVM (peptide), 7.
Regarding RSRKHRP (peptide), the Count came to 6.
Still for that read-out and setting: for SLDHLRL (peptide) the value was 6; for SGPFPLV (peptide), 6.
As for SSMRYNS (peptide), the Count is 6.
For the substance SIQTSAM (peptide), the Count turned out to be 6.
Still for that read-out and setting: for TGNLRLY (peptide) the value was 9.
On the same count and under the same terms, for FVLPNKN (peptide) the value was 8.
Still for that read-out and setting: next, SYTLSRS (peptide): 7.
As for HFLRPSD (peptide), the Count was determined as 7.
